From article doi:10.1101/2023.12.11.571162 (2023)

B1: recombinant protocadherin-15 (PCDH15), Mus musculus, His-tagged construct co-expressed with LHFPL5 (natural protein)
chain: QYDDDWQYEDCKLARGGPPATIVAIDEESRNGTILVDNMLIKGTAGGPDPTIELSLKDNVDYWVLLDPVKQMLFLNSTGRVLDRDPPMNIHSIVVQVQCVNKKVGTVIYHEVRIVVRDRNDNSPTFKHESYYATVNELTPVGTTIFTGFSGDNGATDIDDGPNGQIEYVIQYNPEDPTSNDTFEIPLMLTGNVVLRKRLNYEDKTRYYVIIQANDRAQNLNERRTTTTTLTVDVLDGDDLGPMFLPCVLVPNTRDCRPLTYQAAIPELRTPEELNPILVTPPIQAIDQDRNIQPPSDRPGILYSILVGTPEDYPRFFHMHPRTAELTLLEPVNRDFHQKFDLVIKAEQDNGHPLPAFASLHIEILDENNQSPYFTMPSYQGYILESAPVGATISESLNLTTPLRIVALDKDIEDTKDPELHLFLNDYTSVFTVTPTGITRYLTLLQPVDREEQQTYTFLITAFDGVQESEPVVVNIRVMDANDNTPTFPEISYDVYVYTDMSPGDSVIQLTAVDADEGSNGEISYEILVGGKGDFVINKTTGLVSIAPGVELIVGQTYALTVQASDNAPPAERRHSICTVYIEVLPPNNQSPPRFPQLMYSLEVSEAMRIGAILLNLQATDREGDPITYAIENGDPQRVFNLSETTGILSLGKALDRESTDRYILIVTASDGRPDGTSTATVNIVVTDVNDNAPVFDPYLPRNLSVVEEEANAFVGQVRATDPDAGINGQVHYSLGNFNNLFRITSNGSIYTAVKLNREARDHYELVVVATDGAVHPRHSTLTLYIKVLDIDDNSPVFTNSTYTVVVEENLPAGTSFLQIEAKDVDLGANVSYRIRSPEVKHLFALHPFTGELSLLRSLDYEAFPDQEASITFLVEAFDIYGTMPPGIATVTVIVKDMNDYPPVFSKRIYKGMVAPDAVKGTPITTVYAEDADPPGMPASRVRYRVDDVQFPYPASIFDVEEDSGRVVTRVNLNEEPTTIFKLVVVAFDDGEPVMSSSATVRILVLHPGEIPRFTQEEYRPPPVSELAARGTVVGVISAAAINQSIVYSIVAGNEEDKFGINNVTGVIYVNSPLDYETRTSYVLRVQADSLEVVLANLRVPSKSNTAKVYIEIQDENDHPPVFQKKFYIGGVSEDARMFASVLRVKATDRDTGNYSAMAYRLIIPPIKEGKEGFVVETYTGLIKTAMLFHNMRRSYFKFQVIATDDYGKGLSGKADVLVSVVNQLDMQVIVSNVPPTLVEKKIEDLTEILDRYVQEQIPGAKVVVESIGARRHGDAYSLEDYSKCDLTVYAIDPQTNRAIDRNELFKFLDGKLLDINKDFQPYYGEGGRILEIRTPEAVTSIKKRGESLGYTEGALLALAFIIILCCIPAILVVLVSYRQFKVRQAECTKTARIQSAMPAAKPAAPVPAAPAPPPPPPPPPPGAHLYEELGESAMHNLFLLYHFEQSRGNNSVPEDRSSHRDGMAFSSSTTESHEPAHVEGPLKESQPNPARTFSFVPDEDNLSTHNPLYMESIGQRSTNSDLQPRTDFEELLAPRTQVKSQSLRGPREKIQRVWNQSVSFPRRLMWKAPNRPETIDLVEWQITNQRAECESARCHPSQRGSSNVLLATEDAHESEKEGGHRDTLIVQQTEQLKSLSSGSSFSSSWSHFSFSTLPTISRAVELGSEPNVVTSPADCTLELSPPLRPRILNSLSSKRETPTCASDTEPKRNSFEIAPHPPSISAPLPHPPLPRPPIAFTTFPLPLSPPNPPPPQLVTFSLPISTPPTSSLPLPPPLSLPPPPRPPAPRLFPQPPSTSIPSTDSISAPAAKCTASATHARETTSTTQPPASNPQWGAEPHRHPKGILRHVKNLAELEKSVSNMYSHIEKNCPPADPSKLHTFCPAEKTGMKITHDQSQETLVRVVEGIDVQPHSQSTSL
B2: recombinant lipoma HMGIC fusion partner-like protein 5 (LHFPL5), Mus musculus, strep-tagged construct co-expressed with PCDH15 (natural protein)
chain: MVKLLPAQEAAKIYHTNYVRNSRAVGVMWGTLTICFSVLVMALFIQPYWIGDSVSTPQAGYFGLFSYCVGNVLSSELICKGGPLDFSSIPSRAFKTAMFFVALAMFLIIGSIICFSLFFVCNTATVYKICAWMQLAAATGLMIGCLVYPDGWDSSEVRRMCGEQTGKYTLGHCTIRWAFMLAILSIGDALILSFLAFVLGYRQDKLLPDDYKADGNEEV

Columns and labels:
Test in all cases: BLI
39G7 = biological target: 39G7
Chain of 39G7 (Q99PJ1 27-1943): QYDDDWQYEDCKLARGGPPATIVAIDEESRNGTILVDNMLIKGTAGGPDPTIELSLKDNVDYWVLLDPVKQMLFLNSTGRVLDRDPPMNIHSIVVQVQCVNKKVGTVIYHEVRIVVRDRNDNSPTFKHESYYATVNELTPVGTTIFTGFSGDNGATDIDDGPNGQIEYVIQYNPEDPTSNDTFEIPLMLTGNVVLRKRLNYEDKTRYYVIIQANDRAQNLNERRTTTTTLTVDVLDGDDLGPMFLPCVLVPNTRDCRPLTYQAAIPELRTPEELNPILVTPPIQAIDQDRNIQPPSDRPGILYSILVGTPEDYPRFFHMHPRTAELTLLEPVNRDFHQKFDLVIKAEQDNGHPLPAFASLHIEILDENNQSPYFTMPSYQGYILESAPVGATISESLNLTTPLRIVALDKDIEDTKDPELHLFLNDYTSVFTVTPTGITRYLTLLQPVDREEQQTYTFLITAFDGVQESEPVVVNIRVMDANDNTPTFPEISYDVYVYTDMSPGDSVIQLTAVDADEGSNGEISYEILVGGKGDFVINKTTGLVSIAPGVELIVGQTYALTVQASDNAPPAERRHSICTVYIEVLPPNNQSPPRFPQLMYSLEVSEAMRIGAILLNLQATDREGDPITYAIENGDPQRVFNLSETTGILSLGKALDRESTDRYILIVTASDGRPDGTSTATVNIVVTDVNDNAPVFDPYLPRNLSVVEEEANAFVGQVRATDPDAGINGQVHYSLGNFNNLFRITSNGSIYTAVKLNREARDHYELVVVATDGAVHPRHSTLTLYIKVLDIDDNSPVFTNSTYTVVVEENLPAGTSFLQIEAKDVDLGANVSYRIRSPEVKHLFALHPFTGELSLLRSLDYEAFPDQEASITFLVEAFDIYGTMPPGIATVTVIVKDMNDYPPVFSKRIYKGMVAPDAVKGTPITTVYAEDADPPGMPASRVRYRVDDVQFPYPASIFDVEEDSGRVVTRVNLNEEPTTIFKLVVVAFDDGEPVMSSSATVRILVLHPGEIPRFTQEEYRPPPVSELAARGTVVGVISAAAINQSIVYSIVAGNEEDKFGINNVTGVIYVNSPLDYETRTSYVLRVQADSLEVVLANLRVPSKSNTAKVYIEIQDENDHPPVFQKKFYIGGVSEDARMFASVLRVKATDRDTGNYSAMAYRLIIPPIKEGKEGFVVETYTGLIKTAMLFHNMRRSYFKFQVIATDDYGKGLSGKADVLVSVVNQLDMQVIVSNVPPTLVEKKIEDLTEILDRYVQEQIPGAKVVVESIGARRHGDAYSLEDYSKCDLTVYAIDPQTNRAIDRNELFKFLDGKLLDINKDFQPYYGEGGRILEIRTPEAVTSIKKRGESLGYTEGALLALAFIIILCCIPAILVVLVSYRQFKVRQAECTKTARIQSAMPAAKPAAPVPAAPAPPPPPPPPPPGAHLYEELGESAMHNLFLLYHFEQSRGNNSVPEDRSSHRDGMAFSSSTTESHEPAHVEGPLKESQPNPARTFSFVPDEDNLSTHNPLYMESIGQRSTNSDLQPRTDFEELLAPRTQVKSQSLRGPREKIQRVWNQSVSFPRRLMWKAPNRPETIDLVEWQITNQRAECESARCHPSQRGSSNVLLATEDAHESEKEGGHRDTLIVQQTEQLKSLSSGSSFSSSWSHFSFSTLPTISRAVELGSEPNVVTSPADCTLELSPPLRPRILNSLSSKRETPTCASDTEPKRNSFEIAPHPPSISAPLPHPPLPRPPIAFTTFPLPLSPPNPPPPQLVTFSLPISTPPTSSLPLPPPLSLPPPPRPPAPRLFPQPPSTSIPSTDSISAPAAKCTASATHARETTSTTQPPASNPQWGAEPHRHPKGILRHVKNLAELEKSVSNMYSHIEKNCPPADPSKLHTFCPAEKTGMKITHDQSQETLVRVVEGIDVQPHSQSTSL

8D1 = biological target: 8D1
Chain of 8D1 (Q99PJ1 27-1943): as above

anti-LHFPL5 = biological target: anti-LHFPL5

| Kd (39G7) | koff (39G7) | Kd (8D1) | koff (8D1) | Kd (anti-LHFPL5) | koff (anti-LHFPL5) | Binder |
| --- | --- | --- | --- | --- | --- | --- |
| 0.2 nM | 2e-05 s⁻¹ | 0.05 nM | 3e-05 s⁻¹ |  |  | B1 |
|  |  |  |  | 1 nM | 5e-05 s⁻¹ | B2 |
